Read-outs that look alike come from different tables or passages of the source.

Test [1] addresses human 4-1BB (CD137), cell-surface-expressed on Jurkat-hu4-1BB-NFkB-luc2 reporter cell line (human) (UniProt Q07011). Briefly: cell-based or functional assay. On the set-up: AUC of activation curve, NFκB-luciferase in Jurkat-hu4-1BB-NFκB-luc2, crosslinking by WM-266-4 cells: unit not given beside the values.
Test [2] shares this target. Briefly: cell-based or functional assay. Further details: unit not given beside the values.
Test [3] deals with human HER2, cell-surface-expressed on KPL4 and NCI-N87 cells (human) (UniProt P04626). The test can be described thus: flow cytometry, KPL4 cells, gMFI curve. A general note: Flow cytometry measures light scatter and fluorescence of single cells or particles in a stream.
Test [4] shares this target. The test can be described thus: flow cytometry, NCI-N87 cells, gMFI curve.
The target of test [5] is human Fibroblast Activation Protein (FAP), cell-surface-expressed on NIH/3T3-huFAP clone 19 cells (human) (UniProt Q12884). Briefly: flow cytometry, NIH/3T3-huFAP clone 19 cells, gMFI curve.
In test [6] the target is human 4-1BB (CD137), cell-surface-expressed on Jurkat-hu4-1BB-NFkB-luc2 reporter cell line (human) (UniProt Q07011). Briefly: flow cytometry, Jurkat-hu4-1BB-NFkB-luc2 cells, gMFI curve.
For test [7] the target is unchanged. Described as above. The source holds these as a separate data set.

In turn, DP47 huIgG1 PG LALA (antibody) showed an AUC of activation curve, NFκB-luciferase in Jurkat-hu4-1BB-NFκB-luc2, crosslinking by NIH/3T3-huFAP clone 19 cells in test [1] of 195. In test [1], the AUC of activation curve, NFκB-luciferase in Jurkat-hu4-1BB-NFκB-luc2, crosslinking by WM-266-4 cells was 191. In test [2], the AUC of activation curve, NFκB-luciferase in Jurkat-hu4-1BB-NFκB-luc2, crosslinking by KPL4 cells was 253. The substance further had an AUC of activation curve, NFκB-luciferase in Jurkat-hu4-1BB-NFκB-luc2, crosslinking by NCI-N87 cells in test [2] of 127. This substance registered an AUC of activation curve, NFκB-luciferase in Jurkat-hu4-1BB-NFκB-luc2, crosslinking by SK-Br3 cells in test [2] of 129. Further, the Area under the curve (AUC) of binding curve in test [3] was 177; in test [4] it was 1130; in test [5], 362; in test [6], 87; in test [7] it was 101.

Values taken from US20220025069A1.
